The record followed here is publication PMC4835091.

The target of one experiment is T1, ZapD (purified), P36680.
T1 chain: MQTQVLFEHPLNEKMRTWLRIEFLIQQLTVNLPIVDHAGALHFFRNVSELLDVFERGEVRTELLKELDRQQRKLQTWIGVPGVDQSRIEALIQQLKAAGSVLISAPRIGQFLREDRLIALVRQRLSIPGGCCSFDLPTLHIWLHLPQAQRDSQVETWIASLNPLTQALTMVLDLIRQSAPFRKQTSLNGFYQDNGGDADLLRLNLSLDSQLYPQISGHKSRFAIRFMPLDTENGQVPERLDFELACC
Description: co-sedimentation assay, SDS-PAGE quantification. To be noted: chain shown with the change, 50 mM K-MOPS pH 6.5, 50 mM KCl, 2.5 mM MgCl2, 1 mM GTP, 3 µM BSA, read off a plot.

Experiment [1] has as its target T2, FtsZ(NRNKRG) (purified), P0A9A6.
T2 chain: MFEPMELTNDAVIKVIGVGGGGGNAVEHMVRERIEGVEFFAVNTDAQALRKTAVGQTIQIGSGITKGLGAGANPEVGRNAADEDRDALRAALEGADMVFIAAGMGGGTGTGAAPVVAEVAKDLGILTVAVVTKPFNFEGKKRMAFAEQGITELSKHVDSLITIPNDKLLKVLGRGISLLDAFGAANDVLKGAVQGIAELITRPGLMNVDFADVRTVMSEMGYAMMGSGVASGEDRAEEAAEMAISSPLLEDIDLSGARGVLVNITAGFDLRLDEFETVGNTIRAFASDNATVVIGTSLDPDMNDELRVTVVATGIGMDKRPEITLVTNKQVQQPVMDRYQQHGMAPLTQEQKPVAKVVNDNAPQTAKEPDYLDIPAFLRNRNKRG
The experiment is described as follows: sedimentation (co-pelleting) assay, SDS-PAGE quantification. The following applies: chain shown with the change, 50 mM K-MOPS pH 6.5, 50 mM KCl, 2.5 mM MgCl2, 1 mM GTP, 3 µM BSA, read off a plot.

B1: FtsZ (purified, WT), P0A9A6 CTV KQAD (380-383) replaced by NRNKRG (protein)
chain: MFEPMELTNDAVIKVIGVGGGGGNAVEHMVRERIEGVEFFAVNTDAQALRKTAVGQTIQIGSGITKGLGAGANPEVGRNAADEDRDALRAALEGADMVFIAAGMGGGTGTGAAPVVAEVAKDLGILTVAVVTKPFNFEGKKRMAFAEQGITELSKHVDSLITIPNDKLLKVLGRGISLLDAFGAANDVLKGAVQGIAELITRPGLMNVDFADVRTVMSEMGYAMMGSGVASGEDRAEEAAEMAISSPLLEDIDLSGARGVLVNITAGFDLRLDEFETVGNTIRAFASDNATVVIGTSLDPDMNDELRVTVVATGIGMDKRPEITLVTNKQVQQPVMDRYQQHGMAPLTQEQKPVAKVVNDNAPQTAKEPDYLDIPAFLRNRNKRG
Turning to B1, the response (% ZapD in pellet) was 17 with ZapD (purified), P36680 (5 µM FtsZ with ZapD at 1:0.2, parent: est. 62) and 23 in the experiment with ZapD (purified), P36680 (5 µM FtsZ with ZapD at 1:1, parent: est. 55). Also, the response (% FtsZ in pellet) in experiment [1] (5 µM FtsZ with ZapD at 1:0.2, parent: est. 44) is 34; in experiment [1] (5 µM FtsZ with ZapD at 1:1, parent: est. 73), 36; in experiment [1] (5 µM FtsZ, no ZapD, parent: est. 26) it was 31.
